Results from FireProtDB (doi:10.1110/ps.03220403).

Conditions: pH 8, Thermal, CD, Bis-Tris propane ammonium acetate 0.05 M 0.05 M, reversible: No, whole UniProt chain shown

Protein | Tm (Trichocladium griseum) [°C] | Tm (Hypocrea jecorina) [°C]
wild type, Q8NJY3 (protein) MLKSALLLGAAAVSVQSASIPTIPANLEPRQIRSLCELYGYWSGNGYELLNNLWGKDTATSGWQCTYLDGTNNGGIQWSTAWEWQGAPDNVKSYPYVGKQIQRGRKISDINSMRTSVSWTYDRTDIRANVAYDVFTARDPDHPNWGGDYELMIWLARYGGIYPIGTFHSQVNLAGRTWDLWTGYNGNMRVYSFLPPSGDIRDFSCDIKDFFNYLERNHGYPAREQNLIVYQVGTECFTGGPARFTCRDFRADLW | 68.7 | –
wild type, O00095 (protein) MKFLQVLPALIPAALAQTSCDQWATFTGNGYTVSNNLWGASAGSGFGCVTAVSLSGGASWHADWQWSGGQNNVKSYQNSQIAIPQKRTVNSISSMPTTASWSYSGSNIRANVAYDLFTAANPNHVTYSGDYELMIWLGKYGDIGPIGSSQGTVNVGGQSWTLYYGYNGAMQVYSFVAQTNTTNYSGDVKNFFNYLRDNKGYNAAGQYVLSYQFGTEPFTGSGTLNVASWTASIN | – | 54.4
